Measured values reported in the Human Domainome abundance scans (Beltran et al. 2025).
± gives the uncertainty stated by the source.

B1: Glucocorticoid receptor, residues 419 to 494; numbered along this chain, P04150 (parent)
chain: KLCLVCSDEASGCHYGVLTCGSCKVFFKRAVEGQHNYLCAGRNDCIIDKIRRKNCPACRYRKCLQAGMNLEARKTK

Variants of: B1
Experiment: abundance fitness (aPCA) (normalised: wild type 0, dead -1); higher = more abundant; growth selection in yeast, the domain comes from the species named
Conditions: Homo sapiens

Question: For KLCLVCSDEASGCHYGVLTCGSCKVFFKRAVEGQHTYLCAGRNDCIIDKIRRKNCPACRYRKCLQAGMNLEARKTK, which abundance fitness is on record?
Answer: Its abundance fitness is -0.008 ± 0.046.

Question: With KMCLVCSDEASGCHYGVLTCGSCKVFFKRAVEGQHNYLCAGRNDCIIDKIRRKNCPACRYRKCLQAGMNLEARKTK as the variant, how does the abundance fitness read?
Answer: The abundance fitness was -0.024 ± 0.057.

Question: For KLCLVCSYEASGCHYGVLTCGSCKVFFKRAVEGQHNYLCAGRNDCIIDKIRRKNCPACRYRKCLQAGMNLEARKTK, which abundance fitness is on record?
Answer: The abundance fitness was -0.409 ± 0.084.

Question: For KLCLVCSDEASGCHDGVLTCGSCKVFFKRAVEGQHNYLCAGRNDCIIDKIRRKNCPACRYRKCLQAGMNLEARKTK, which abundance fitness is on record?
Answer: Its abundance fitness is -0.055 ± 0.049.

Question: With KLCLVCSDEASGCHYGVLTCGSCKVFFKRAVEGQHNYLCAGRNGCIIDKIRRKNCPACRYRKCLQAGMNLEARKTK as the variant, how does the abundance fitness read?
Answer: Its abundance fitness is -0.145 ± 0.036.

Question: Which abundance fitness does the source give for KLCLVCSDEASGCHYGVLTCGSCKVFFKRAVEGQHNYLCAGRNDCIIDKIRRKNCPACRYRKCLQAGMNLEARSTK here?
Answer: The abundance fitness was -0.047 ± 0.046.

Question: Which abundance fitness does the source give for KLCLVCSDEASGCHYGVLTCGSCKVFFKRAVEGQHNYLCAGRNDCIIDKIRRKNCPAYRYRKCLQAGMNLEARKTK here?
Answer: Its abundance fitness is -0.405 ± 0.16.

Question: With KPCLVCSDEASGCHYGVLTCGSCKVFFKRAVEGQHNYLCAGRNDCIIDKIRRKNCPACRYRKCLQAGMNLEARKTK as the variant, how does the abundance fitness read?
Answer: Its abundance fitness is -0.39 ± 0.068.

Question: With KLCLVCSDEASGCHYGVLTCGSCKVFFKRNVEGQHNYLCAGRNDCIIDKIRRKNCPACRYRKCLQAGMNLEARKTK as the variant, how does the abundance fitness read?
Answer: The abundance fitness was -0.283 ± 0.098.

Question: Which abundance fitness does the source give for KLCLVCSDEASGCHYGVLTCGSCKVFFKRRVEGQHNYLCAGRNDCIIDKIRRKNCPACRYRKCLQAGMNLEARKTK here?
Answer: Its abundance fitness is -0.457 ± 0.045.

Question: With KLCLVCSDEASGCHYGVLTCGSCKVFFKRAVEGQHNYLCAGRNDCIIDKIIRKNCPACRYRKCLQAGMNLEARKTK as the variant, how does the abundance fitness read?
Answer: Its abundance fitness is -0.134 ± 0.1.

Question: With KLCLVCSDEASGCHYGVLVCGSCKVFFKRAVEGQHNYLCAGRNDCIIDKIRRKNCPACRYRKCLQAGMNLEARKTK as the variant, how does the abundance fitness read?
Answer: Its abundance fitness is -0.011 ± 0.035.

Question: For KLCLVCSDEASGCHYGVLTCGSCKVFFKRAVELQHNYLCAGRNDCIIDKIRRKNCPACRYRKCLQAGMNLEARKTK, which abundance fitness is on record?
Answer: Its abundance fitness is -0.093 ± 0.035.

Question: With KVCLVCSDEASGCHYGVLTCGSCKVFFKRAVEGQHNYLCAGRNDCIIDKIRRKNCPACRYRKCLQAGMNLEARKTK as the variant, how does the abundance fitness read?
Answer: The abundance fitness was -0.02 ± 0.031.

Question: Which abundance fitness does the source give for KLCLVCSDEASGCHYGVLTCGSCKVFFKRAFEGQHNYLCAGRNDCIIDKIRRKNCPACRYRKCLQAGMNLEARKTK here?
Answer: Its abundance fitness is -0.007 ± 0.058.

Question: Which abundance fitness does the source give for KLCLVCSDEASGCHYGVLTCGSCKVFFKRAVEGQHNYLCAGRNDCIIDKIRRKNCPACRYRKCLQAGMNLCARKTK here?
Answer: The abundance fitness was -0.052 ± 0.049.

Question: With KLCLVCSDEASGCHYGVLTCGSCKVFFKRAVEGQHNYACAGRNDCIIDKIRRKNCPACRYRKCLQAGMNLEARKTK as the variant, how does the abundance fitness read?
Answer: Its abundance fitness is 0.01 ± 0.034.

Question: For KLCLVCSDEASGCHYGVLTCGSCKVFFKRAVEGQHNYLCAGRNDCIIDKIRRKNCPACRYHKCLQAGMNLEARKTK, which abundance fitness is on record?
Answer: The abundance fitness was -0.079 ± 0.077.

Question: For KLCLVCSDEASGCHYGVLTCGSCKVLFKRAVEGQHNYLCAGRNDCIIDKIRRKNCPACRYRKCLQAGMNLEARKTK, which abundance fitness is on record?
Answer: Its abundance fitness is -0.655 ± 0.075.

Question: Which abundance fitness does the source give for KLCLVCSDEASGCHYGVLTCGSCKVFFKRAVEGQHNYLCAGRNDCIIDKIRRKNCPACRYRKCLQAGPNLEARKTK here?
Answer: The abundance fitness was -0.928 ± 0.14.

Question: With KLCLVCSDEASGCHYGVLTCGSCKVFFKRAVEGQHNYLCAGRNDCIIDKIRRKNCPACRYRKCLQAGMNLEYRKTK as the variant, how does the abundance fitness read?
Answer: Its abundance fitness is 0.011 ± 0.061.

Question: For KLCLVCSDEASGCHYGVLTCGSCKVFFKRAVEGQHNYLCAGRNDCIIDKIRRKNCPACRYRKCLQAGWNLEARKTK, which abundance fitness is on record?
Answer: Its abundance fitness is -0.846 ± 0.1.

Question: Which abundance fitness does the source give for KLCLCCSDEASGCHYGVLTCGSCKVFFKRAVEGQHNYLCAGRNDCIIDKIRRKNCPACRYRKCLQAGMNLEARKTK here?
Answer: The abundance fitness was -0.749 ± 0.15.

Question: With KLCLVCSDEASGCHYGVLTCGSCKVFFKRAVEGQHNYMCAGRNDCIIDKIRRKNCPACRYRKCLQAGMNLEARKTK as the variant, how does the abundance fitness read?
Answer: The abundance fitness was 0.02 ± 0.049.

Question: For KLCLVCSDEASGCHYGVLTCGSCKVFFKRAVEGQHNYLCAGRNDCIIDKIRRKNCPACRYRVCLQAGMNLEARKTK, which abundance fitness is on record?
Answer: Its abundance fitness is -0.119 ± 0.034.

Question: For KLCLVCSDEASGCHYGVLTCGSCKVFFKRAVEGQHNYLCAGRNDCIIDKIRRKNPPACRYRKCLQAGMNLEARKTK, which abundance fitness is on record?
Answer: Its abundance fitness is -0.757 ± 0.14.

Question: For KLCMVCSDEASGCHYGVLTCGSCKVFFKRAVEGQHNYLCAGRNDCIIDKIRRKNCPACRYRKCLQAGMNLEARKTK, which abundance fitness is on record?
Answer: The abundance fitness was 0.001 ± 0.042.

Question: For KLCLVCSDEASGCHYGVLTCGSCKVFFKRAVEGQHNYLCAGRRDCIIDKIRRKNCPACRYRKCLQAGMNLEARKTK, which abundance fitness is on record?
Answer: The abundance fitness was -0.052 ± 0.03.

Question: Which abundance fitness does the source give for KLCLVCSDEASGCHYGVLTCGSCKVFFKRAVEGQHNYLLAGRNDCIIDKIRRKNCPACRYRKCLQAGMNLEARKTK here?
Answer: The abundance fitness was -0.923 ± 0.1.

Question: With KLCLVCSDEASGCHYGVLTCGSCKVFFKRAVEGQHNYLCAGLNDCIIDKIRRKNCPACRYRKCLQAGMNLEARKTK as the variant, how does the abundance fitness read?
Answer: The abundance fitness was 0.012 ± 0.034.

Question: Which abundance fitness does the source give for KLCLVCSDEASGCHYGVLTCGSCKVFFKRAVEGQHNYLCAGCNDCIIDKIRRKNCPACRYRKCLQAGMNLEARKTK here?
Answer: The abundance fitness was -0.064 ± 0.045.

Question: With KLCLVCSDEASGCHYGVLTWGSCKVFFKRAVEGQHNYLCAGRNDCIIDKIRRKNCPACRYRKCLQAGMNLEARKTK as the variant, how does the abundance fitness read?
Answer: The abundance fitness was -0.78 ± 0.11.

Question: Which abundance fitness does the source give for KLCLVCSDEASGCHYGVLTCGSCSVFFKRAVEGQHNYLCAGRNDCIIDKIRRKNCPACRYRKCLQAGMNLEARKTK here?
Answer: Its abundance fitness is 0.062 ± 0.055.

Question: For KLCLVCSDEASGCHYGVLTCGSCKVFFKRAVEGQHNYLCAGRNDCIIDKIRRKNCPACRYRPCLQAGMNLEARKTK, which abundance fitness is on record?
Answer: The abundance fitness was -0.867 ± 0.11.

Question: For KLCLVCSDEASGCHYGVLTCGSCKVFFKRAVEGQHNYLCAGRNDCIIDKIRRKNCPACRYRKCFQAGMNLEARKTK, which abundance fitness is on record?
Answer: The abundance fitness was -0.107 ± 0.069.

Question: For KLCLVCSDEASGCHYGVLTCGSCKVFFKRAVEGQHNYLCAGRNDCIIDKIRRKNCPQCRYRKCLQAGMNLEARKTK, which abundance fitness is on record?
Answer: Its abundance fitness is -0.195 ± 0.05.
